Settings: Hevea brasiliensis, Thermal, DSC, glycine 0.05 M, reversible: yes (~75%), whole UniProt chain shown

B1: Pro-hevein wild type, P02877 (protein)
chain: MNIFIVVLLCLTGVAIAEQCGRQAGGKLCPNNLCCSQWGWCGSTDEYCSPDHNCQSNCKDSGEGVGGGSASNVLATYHLYNSQDHGWDLNAASAYCSTWDANKPYSWRSKYGWTAFCGPVGAHGQSSCGKCLSVTNTGTGAKTTVRIVDQCSNGGLDLDVNVFRQLDTDGKGYERGHITVNYQFVDCGDSFNPLFSVMKSSVIN
pH 1.82
  Tm: 73 °C
  heat capacity change of unfolding: 0.37 kcal/mol/K
  unfolding enthalpy (calorimetric): 29 kcal/mol
  unfolding enthalpy (van 't Hoff): 43.4 kcal/mol
pH 2.1
  Tm: 74.2 °C
  heat capacity change of unfolding: 0.44 kcal/mol/K
  unfolding enthalpy (calorimetric): 28.6 kcal/mol
  unfolding enthalpy (van 't Hoff): 41.6 kcal/mol
pH 2.92
  Tm: 77.8 °C
  heat capacity change of unfolding: 0.5 kcal/mol/K
  unfolding enthalpy (calorimetric): 31 kcal/mol
  unfolding enthalpy (van 't Hoff): 41.5 kcal/mol
pH 3.2
  Tm: 83.6 °C
  heat capacity change of unfolding: 0.62 kcal/mol/K
  unfolding enthalpy (calorimetric): 34 kcal/mol
  unfolding enthalpy (van 't Hoff): 41.8 kcal/mol
pH 3.54
  Tm: 84.5 °C
  heat capacity change of unfolding: 0.44 kcal/mol/K
  unfolding enthalpy (calorimetric): 36.5 kcal/mol
  unfolding enthalpy (van 't Hoff): 41.6 kcal/mol
pH 3.67
  Tm: 90.1 °C
  heat capacity change of unfolding: 0.45 kcal/mol/K
  unfolding enthalpy (calorimetric): 38 kcal/mol
  unfolding enthalpy (van 't Hoff): 42.5 kcal/mol

Reference: FireProtDB (doi:10.1111/j.1432-1033.1995.tb20304.x)
